Assay results: patent US12728086B2, “Sunscreens derived from kynurenines and other UV-absorbing oxidized amino acids bound to peptides or polymers” (The Trustees of Princeton University, priority 2021, dated 2026)
“And” between values parts separate entries of the source, which are not always exact repeats. Identical values can stand only once.

Experiment: UV-visible spectroscopy of oxidized or kynurenine-modified amino acids, peptides, proteins and polymers
Type: physicochemical
Method: A prototype of oxidized amino acid-bearing peptides from enzymatic hydrolysate of pea protein was made. […] More particularly, peptides derived from enzymatic hydrolysis of pea protein (Sigma, 16974) were oxidized in 50 mM sodium phosphate buffer at room temperature using ozone bubbled through the solution (A2Z Ozone Inc., MP1000).
A prototype of kynurenine-bearing polymers was produced from enzymatic hydrolysis of soy protein generating starting peptide material. The soluble peptides were then oxidized in a semi-sealed container into which ozone was pumped.
This was done with bovine serum albumin buffer exchanged with into 50 mM sodium phosphate pH 6.5 to remove small molecule impurities.
The polymeric lysine (8.8 mg) was suspended in 200 microliters of 50 mM sodium bicarbonate pH 9.5 and treated with DL-kynurenine (Sigma 61250) (~1 mM) for 44 hours at 37° C. in the dark. […] Controls of poly-lysine with no added kynurenine and that of kynurenine without poly-lysine were run concurrently. […] Soy peptides were used similarly, though they also contain other potential nucleophilic residues besides lysine to which kynurenine monomers could be added, including cysteine and histidine. These soy peptides were generated from overnight incubation at 37° C. of soy protein powder (5 g/100 mL deionized water) using porcine pepsin (0.5 mg/mL) all brought to pH 2.0 using hydrochloric acid. After this incubation, insoluble material was removed via centrifugation, and the clarified solution was brought to pH 9.5 using sodium hydroxide. This soy peptide solution was added in two parts to one part 50 mM sodium bicarbonate pH 9.5. To 1 mL of soy peptide solution was added 0.2 mL DLkynurenine (final 1 mM), and this was incubated for 44 hours at 37° C. in the dark. To isolate peptides from free kynurenine to determine if kynurenine monomers were added by UV-visible spectroscopy, small molecules and even some small peptides were removed with size exclusion (Sephadex G-50, GE Healthcare).

[1] = after treatment with ozone, UV-visible spectroscopy
[2] = after incubation with DL-kynurenine (44 hours, 37° C., pH 9.5) and size exclusion

| Compound | region of increased absorbance [1] | region of increased absorbance [2] | wavelength of absorbance increase in the UVA [2] |
| --- | --- | --- | --- |
| bovine serum albumin: bovine serum albumin stirred under a stream of ozone for 8 hours | 300-350 nm |  |  |
| N[C@@H](Cc1c[nH]c2ccccc12)C(=O)O [L-tryptophan] | 300 to 400 nm and 300-400 nm |  |  |
| NC(CC(=O)c1ccccc1NC=O)C(=O)O (centres unmarked) [N-formyl kynurenine] | 300-350 nm |  |  |
| poly-L-lysine |  | 300-400 nm | around 360 nm |
